Measured values published in the Immune Epitope Database (IEDB).

How the values were obtained:
[1] = molecular target: HLA-A*01:01; assay: IEDB peptide-MHC binding, purified MHC/competitive/fluorescence; ≥ and ≤ were set here for values at or beyond the usual limits of such assays; conditions: source organism: Zaire ebolavirus
[2] = molecular target: HLA-A*30:01; assay: IEDB peptide-MHC binding, purified MHC/direct/fluorescence; filed as Kd, often an IC50 or EC50 that approximates it; ≥ and ≤ were set here for values at or beyond the usual limits of such assays; conditions: source organism: Cryptosporidium parvum
[3] = molecular target: HLA-A*11:01; assay: as above
[4] = molecular target: HLA-B*27:05; assay: as above
[5] = molecular target: HLA-B*44:02; assay: as above; conditions: source organism: Cryptosporidium parvum
[6] = molecular target: HLA-B*58:01; assay: as above
[7] = molecular target: HLA-A*69:01; assay: as above
[8] = molecular target: HLA-B*73:01; assay: as above; conditions: source organism: Cryptosporidium parvum Iowa II
[9] = molecular target: HLA-B*40:01; assay: as above
[10] = molecular target: HLA-B*08:01; assay: as above; conditions: source organism: Cryptosporidium parvum
[11] = molecular target: HLA-A*01:01; assay: as above
[12] = molecular target: HLA-A*31:01; assay: as above
[13] = molecular target: HLA-A*02:01; assay: as above
[14] = molecular target: HLA-A*03:01; assay: as above
[15] = molecular target: HLA-B*07:02; assay: as above; conditions: source organism: Cryptosporidium parvum
[16] = molecular target: HLA-B*15:01; assay: as above
[17] = molecular target: HLA-A*26:01; assay: as above
[18] = molecular target: HLA-A*11:01; assay: IEDB peptide-MHC binding, purified MHC/competitive/fluorescence; filed as Kd, often an IC50 or EC50 that approximates it; ≥ and ≤ were set here for values at or beyond the usual limits of such assays
[19] = molecular target: HLA-B*15:01; assay: as above; conditions: source organism: Vibrio parahaemolyticus K5030
[20] = molecular target: HLA-B*18:01; assay: IEDB peptide-MHC binding, purified MHC/direct/fluorescence; filed as Kd, often an IC50 or EC50 that approximates it; ≥ and ≤ were set here for values at or beyond the usual limits of such assays; conditions: source organism: Vibrio parahaemolyticus
[21] = molecular target: HLA-B*39:01; assay: as above; conditions: source organism: Vibrio parahaemolyticus RIMD 2210633
[22] = molecular target: HLA-B*15:17; assay: as above; conditions: source organism: Vibrio parahaemolyticus
[23] = molecular target: HLA-B*08:02; assay: as above; conditions: source organism: Vibrio parahaemolyticus RIMD 2210633
[24] = molecular target: HLA-B*48:01; assay: as above; conditions: source organism: Vibrio parahaemolyticus
[25] = molecular target: HLA-B*57:01; assay: as above; conditions: source organism: Vibrio parahaemolyticus
[26] = molecular target: HLA-B*46:01; assay: as above; conditions: source organism: Vibrio parahaemolyticus
[27] = molecular target: HLA-B*15:42; assay: IEDB peptide-MHC binding, purified MHC/competitive/fluorescence; filed as Kd, often an IC50 or EC50 that approximates it; ≥ and ≤ were set here for values at or beyond the usual limits of such assays
[28] = molecular target: HLA-B*45:06; assay: as above
[29] = molecular target: HLA-C*04:01; assay: as above
[30] = molecular target: HLA-B*83:01; assay: as above
[31] = molecular target: HLA-A*02:01; assay: IEDB peptide-MHC binding, purified MHC/competitive/radioactivity; ≥ and ≤ were set here for values at or beyond the usual limits of such assays; conditions: source organism: Homo sapiens
[32] = molecular target: HLA-C*08:02; assay: IEDB peptide-MHC binding, purified MHC/direct/fluorescence; filed as Kd, often an IC50 or EC50 that approximates it; ≥ and ≤ were set here for values at or beyond the usual limits of such assays
[33] = molecular target: HLA-B*51:01; assay: IEDB peptide-MHC binding, purified MHC/competitive/fluorescence; filed as Kd, often an IC50 or EC50 that approximates it; ≥ and ≤ were set here for values at or beyond the usual limits of such assays; conditions: source organism: Bacillus anthracis str. A2012
[34] = molecular target: HLA-B*35:01; assay: as above; conditions: source organism: Bacillus anthracis str. A2012
[35] = molecular target: HLA-B*07:02; assay: as above; conditions: source organism: Bacillus anthracis str. A2012
[36] = molecular target: HLA-B*44:02; assay: IEDB peptide-MHC binding, purified MHC/competitive/radioactivity; filed as Kd, often an IC50 or EC50 that approximates it; ≥ and ≤ were set here for values at or beyond the usual limits of such assays; conditions: source organism: Homo sapiens
[37] = molecular target: HLA-B*44:03; assay: as above; conditions: source organism: Homo sapiens
[38] = molecular target: HLA-B*57:01; assay: as above; conditions: source organism: Homo sapiens
[39] = molecular target: HLA-C*12:03; assay: IEDB peptide-MHC binding, purified MHC/direct/fluorescence; filed as Kd, often an IC50 or EC50 that approximates it; ≥ and ≤ were set here for values at or beyond the usual limits of such assays
[40] = molecular target: HLA-C*14:02; assay: IEDB peptide-MHC binding, purified MHC/competitive/fluorescence; filed as Kd, often an IC50 or EC50 that approximates it; ≥ and ≤ were set here for values at or beyond the usual limits of such assays; conditions: source organism: Vibrio vulnificus YJ016
[41] = molecular target: HLA-B*46:01; assay: as above; conditions: source organism: Vibrio vulnificus YJ016
[42] = molecular target: HLA-B*35:01; assay: IEDB peptide-MHC binding, purified MHC/direct/fluorescence; filed as Kd, often an IC50 or EC50 that approximates it; ≥ and ≤ were set here for values at or beyond the usual limits of such assays; conditions: source organism: Vibrio vulnificus YJ016
[43] = molecular target: HLA-C*06:02; assay: as above; conditions: source organism: Vibrio vulnificus YJ016
[44] = source organism: Cryptosporidium parvum
[45] = source organism: Vibrio parahaemolyticus
[46] = source organism: Mycobacterium tuberculosis CDC1551
[47] = source organism: Camelpox virus M-96
[48] = source organism: Vibrio vulnificus YJ016

GPFDAVLYY
IC50 [1]: ≥ 172 µM

KHNSAESAK
Kd [2]: 11.9 µM | Kd [3, 44]: ≥ 20 µM | Kd [4, 44]: ≥ 20 µM | Kd [5]: ≥ 20 µM | Kd [6, 44]: ≥ 20 µM | Kd [7, 44]: ≥ 20 µM | Kd [8]: ≥ 20 µM | Kd [9, 44]: ≥ 20 µM | Kd [10]: ≥ 20 µM | Kd [11, 44]: ≥ 20 µM | Kd [12, 44]: ≥ 20 µM | Kd [13, 44]: ≥ 20 µM | Kd [14, 44]: 12.3 µM | Kd [15]: ≥ 20 µM | Kd [16, 44]: ≥ 20 µM | Kd [17, 44]: ≥ 20 µM

LTESDMDYH
IC50 [1]: 41.6 µM

NSSYWRQGY
Kd ([18]; source organism: Vibrio parahaemolyticus K5030): ≥ 20 µM | Kd [19]: ≥ 20 µM | Kd [20]: ≥ 20 µM | Kd [4, 45]: ≥ 20 µM | Kd [6, 45]: ≥ 20 µM | Kd [21]: ≥ 20 µM | Kd [7, 45]: ≥ 20 µM | Kd [22]: 0.222 µM | Kd [23]: ≥ 20 µM | Kd [9, 45]: ≥ 20 µM | Kd [11, 45]: 0.093 µM | Kd [24]: ≥ 20 µM | Kd [12, 45]: ≥ 20 µM | Kd [13, 45]: ≥ 20 µM | Kd [14, 45]: ≥ 20 µM | Kd [25]: ≥ 20 µM | Kd [26]: ≥ 20 µM | Kd ([17]; source organism: Vibrio parahaemolyticus RIMD 2210633): 0.16 µM

RPREATIIY
Kd [27, 46]: ≥ 5 µM | Kd [28, 46]: ≥ 5 µM | Kd [29, 46]: ≥ 5 µM | Kd [30, 46]: ≥ 5 µM

RQASLSISV
IC50 [31]: 0.285 µM

SCSRAIPQV
IC50 [31]: 1.47 µM

SFGGFTFK
Kd ([18]; source organism: Influenza A virus H3N2): 0.0448 µM

YLSSWTPVV
Kd ([32]; source organism: Variola virus): 0.074 µM | Kd [7, 47]: 0.154 µM | Kd [13, 47]: ≤ 0.001 µM

YPIVIAPAM
Kd [33]: 1.01 µM | Kd [34]: ≤ 0.0001 µM | Kd [35]: 0.0138 µM

YTAVVPLVY
Kd [36]: 7.78 µM | Kd [37]: 5.54 µM | Kd [38]: 0.208 µM | Kd ([32]; source organism: Homo sapiens): ≥ 20 µM | Kd ([3]; source organism: Homo sapiens): 2.5 µM | Kd ([39]; source organism: Homo sapiens): 0.171 µM | Kd ([6]; source organism: Homo sapiens): 0.0631 µM | Kd ([7]; source organism: Homo sapiens): 1.31 µM | Kd ([11]; source organism: Homo sapiens): 0.143 µM | Kd ([14]; source organism: Homo sapiens): 4.54 µM | Kd ([16]; source organism: Homo sapiens): 0.41 µM

YTMELCGAM
Kd [40]: ≤ 0.0001 µM | Kd [27, 48]: ≥ 5 µM | Kd [28, 48]: ≥ 5 µM | Kd [29, 48]: ≥ 5 µM | Kd [30, 48]: ≥ 5 µM | Kd [41]: 0.018 µM | Kd [42]: 0.028 µM | Kd [39, 48]: 0.088 µM | Kd [43]: ≥ 20 µM
